Here are results for ten molecules from publication PMC6657692 (Cellular microbiology, 2018).

By Kd is commonly meant the equilibrium constant for the complex coming apart. Usually koff stands for the first-order rate constant of dissociation. High values mean a short-lived complex, low ones a long-lived complex. One may read the kon as the second-order rate constant of association. High values mean faster complex formation, low ones slower complex formation.

Sequences and labels used below:
T1: Aggregatibacter actinomycetemcomitans leukotoxin (LtxA) (Aggregatibacter actinomycetemcomitans …, UniProt P16462 1-1055)
T1 sequence: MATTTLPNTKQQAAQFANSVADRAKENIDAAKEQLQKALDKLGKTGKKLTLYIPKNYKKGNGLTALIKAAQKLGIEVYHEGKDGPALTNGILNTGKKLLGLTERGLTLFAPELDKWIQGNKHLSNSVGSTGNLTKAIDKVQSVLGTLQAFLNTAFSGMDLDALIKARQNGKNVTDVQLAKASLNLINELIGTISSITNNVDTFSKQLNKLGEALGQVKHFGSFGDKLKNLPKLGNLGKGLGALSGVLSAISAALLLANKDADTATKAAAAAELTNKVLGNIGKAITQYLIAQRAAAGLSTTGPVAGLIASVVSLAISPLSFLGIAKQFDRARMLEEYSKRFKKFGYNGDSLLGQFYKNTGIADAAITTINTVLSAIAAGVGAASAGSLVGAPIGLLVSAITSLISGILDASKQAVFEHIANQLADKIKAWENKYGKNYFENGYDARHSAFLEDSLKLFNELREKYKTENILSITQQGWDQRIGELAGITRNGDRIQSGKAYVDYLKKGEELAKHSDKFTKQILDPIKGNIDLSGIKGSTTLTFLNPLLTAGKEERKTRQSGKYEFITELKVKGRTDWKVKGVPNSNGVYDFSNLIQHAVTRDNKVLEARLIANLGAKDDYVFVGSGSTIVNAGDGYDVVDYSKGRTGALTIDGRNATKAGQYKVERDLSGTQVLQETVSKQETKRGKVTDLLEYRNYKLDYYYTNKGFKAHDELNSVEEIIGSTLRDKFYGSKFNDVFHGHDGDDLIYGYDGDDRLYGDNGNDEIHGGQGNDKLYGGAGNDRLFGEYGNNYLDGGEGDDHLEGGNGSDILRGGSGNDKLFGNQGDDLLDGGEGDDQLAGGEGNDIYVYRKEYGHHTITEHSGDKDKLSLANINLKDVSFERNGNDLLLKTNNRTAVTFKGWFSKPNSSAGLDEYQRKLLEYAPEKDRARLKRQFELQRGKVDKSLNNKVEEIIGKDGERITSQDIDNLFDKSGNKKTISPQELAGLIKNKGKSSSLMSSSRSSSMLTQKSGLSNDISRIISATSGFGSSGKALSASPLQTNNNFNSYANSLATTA

B1: αL cytoplasmic tail peptide (integrin αL, LFA-1 α subunit) (peptide)
peptide: CKVGFFKRNLKEKMEAGRGVPNGIPAEDSEQLASGQEAGDPGSLKPLHEKDSESGGGKD

The test has as its target T1, Aggregatibacter actinomycetemcomitans …. The experiment in a line: SPR. Background: Surface plasmon resonance follows binding to a sensor surface in real time, without labels.
Consider CKVGFFKRNLKEKMEAGRGVPNGI [αLN peptide (N-terminal, membrane-proximal part of the αL cytoplasmic tail)], for which the Ka came out at 6.6e+07 M⁻¹, the Kd is 16 nM, the koff was 0.00013 s⁻¹ and the on-rate (kon) was found to be 8400 M⁻¹ s⁻¹.

CLKSQWNNDNPLFKSATTTVMNPKFAES [β2C peptide (C-terminal part of the β2 cytoplasmic tail)] showed a Ka of 2e+07 M⁻¹, a Kd of 51 nM, a koff of 0.00031 s⁻¹ and a kon of 6100 M⁻¹ s⁻¹.

CKALIHLSDLREYRRFEKEKLKSQWNN [β2N2 peptide (longer N-terminal part of the β2 cytoplasmic tail, with WNN)] had a Ka of 1.1e+08 M⁻¹, an equilibrium dissociation constant (Kd) of 9.4 nM, a koff of 0.00013 s⁻¹ and a kon of 14000 M⁻¹ s⁻¹.

Take B1: the Ka worked out at 6.9e+07 M⁻¹; the affinity, expressed as Kd, was 15 nM; the koff is 0.00012 s⁻¹; the on-rate (kon) is 8500 M⁻¹ s⁻¹.

Regarding CKLLITIHDRKEFAKFEEERARAKWDTANNPLYKEATSTFTNITYRGT [β3 cytoplasmic tail peptide (integrin β3)], the Ka was found to be 4.4e+06 M⁻¹, the Kd amounted to 230 nM, the koff turned out to be 0.0059 s⁻¹ and the kon came to 26000 M⁻¹ s⁻¹.

Take CKALIHLSDLREYRRFEKEKLKSQ [β2N peptide (N-terminal part of the β2 cytoplasmic tail)]: the Ka is 9.6e+06 M⁻¹; the affinity, expressed as Kd, was 110 nM; the koff turned out to be 0.00063 s⁻¹; the on-rate (kon) worked out at 6100 M⁻¹ s⁻¹.

In turn, CKLGFFKRQYKDMMSEGGSPGAEPQ [αM cytoplasmic tail peptide (integrin αM)] yielded a Ka of 2.5e+06 M⁻¹, a Kd of 400 nM, a koff of 0.011 s⁻¹ and a kon of 28000 M⁻¹ s⁻¹.

Consider CKALIHLSDLREYRRFEKEKLKSQWNNDNPLFKSATTTVMNPKFAES [β2 cytoplasmic tail peptide (integrin β2, LFA-1 β subunit)], for which the Ka came to 2.4e+08 M⁻¹, the Kd is 4.2 nM, the koff was 0.0001 s⁻¹ and the kon came out at 24000 M⁻¹ s⁻¹.

Take CGQEAGDPGSLKPLHEKDSESGGGKD [αLC peptide (C-terminal, membrane-distal part of the αL cytoplasmic tail)]: the Ka was found to be 370000 M⁻¹.

Molecule CKVGFFKRQYKEMMEEANGQIAPENGTQTPSPPSEK [αX cytoplasmic tail peptide (integrin αX)] yielded a Ka of 5.7e+06 M⁻¹, a Kd of 180 nM, a koff of 0.022 s⁻¹ and a kon of 130000 M⁻¹ s⁻¹.
